{"source": "the supplement of paper PMC6755084", "parents": {"B1": {"name": "F1*; the commonest letter at each place (parent)", "chain": "GAGACCGCAACTGAAAAGTTGTTATCACTTGTCGTAAGACACTTTGGATGGGTTGAAGTTCTGCACGTAGAAGCAAAAGGC"}}, "data": [{"variants_of": "B1", "assay": "fraction ligated after 30 min (ligated reads / total reads); higher = more ligase activity", "settings": "with F1*sub RNA substrate (template-directed ligation), 42 °C", "protocol": "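Chip-synthesised pool of F1* ligase ribozyme variants (all single and double substitutions, single, double and triple deletions in the catalytic core and GAA bulge, plus designed variants) was transcribed with T7 and reacted as a pool with excess substrate F1*sub for 30 min at 42 C in 50 mM EPPS pH 8.5, 25 mM MgCl2. Ligated and unligated bands were separated by PAGE, barcoded by RT and deep sequenced; fraction ligated = ligated reads / total reads per variant, relative activity = FL / FL of wild type (0.826). Sequences are the DNA template of the ribozyme.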", "values": [{"variant": "T23G G38C", "fraction ligated": 0.808}, {"variant": "T23G G38T", "fraction ligated": 0.81}, {"variant": "T23G G46A", "fraction ligated": 0.809}, {"variant": "T23G G46C", "fraction ligated": 0.803}, {"variant": "T23G G46T", "fraction ligated": 0.759}, {"variant": "T23G G47A", "fraction ligated": 0.79}, {"variant": "T23G G47C", "fraction ligated": 0.0263}, {"variant": "T23G G47T", "fraction ligated": 0.346}, {"variant": "T23G G50A", "fraction ligated": 0.633}, {"variant": "T23G G50C", "fraction ligated": 0.401}, {"variant": "T23G G50T", "fraction ligated": 0.728}, {"variant": "T23G G55A", "fraction ligated": 0.832}, {"variant": "T23G G55C", "fraction ligated": 0.809}, {"variant": "T23G G55T", "fraction ligated": 0.826}, {"variant": "T23G T25A", "fraction ligated": 0.78}, {"variant": "T23G T25C", "fraction ligated": 0.781}, {"variant": "T23G T25G", "fraction ligated": 0.738}, {"variant": "T23G T29A", "fraction ligated": 0.824}, {"variant": "T23G T29C", "fraction ligated": 0.784}, {"variant": "T23G T29G", "fraction ligated": 0.797}, {"variant": "T23G T30A", "fraction ligated": 0.808}, {"variant": "T23G T30C", "fraction ligated": 0.765}, {"variant": "T23G T30G", "fraction ligated": 0.8}, {"variant": "T23G T32A", "fraction ligated": 0.858}, {"variant": "T23G T32C", "fraction ligated": 0.75}, {"variant": "T23G T32G", "fraction ligated": 0.842}, {"variant": "T23G T35A", "fraction ligated": 0.834}, {"variant": "T23G T35C", "fraction ligated": 0.827}, {"variant": "T23G T35G", "fraction ligated": 0.86}, {"variant": "T23G T43A", "fraction ligated": 0.811}, {"variant": "T23G T43C", "fraction ligated": 0.747}, {"variant": "T23G T43G", "fraction ligated": 0.821}, {"variant": "T23G T44A", "fraction ligated": 0.842}, {"variant": "T23G T44C", "fraction ligated": 0.802}, {"variant": "T23G T44G", "fraction ligated": 0.86}, {"variant": "T23G T45A", "fraction ligated": 0.795}, {"variant": "T23G T45C", "fraction ligated": 0.781}, {"variant": "T23G T45G", "fraction ligated": 0.523}, {"variant": "T23G T49A", "fraction ligated": 0.766}, {"variant": "T23G T49C", "fraction ligated": 0.748}, {"variant": "T23G T49G", "fraction ligated": 0.761}, {"variant": "A24C", "fraction ligated": 0.747}, {"variant": "A24C A27C", "fraction ligated": 0.557}, {"variant": "A24C A27G", "fraction ligated": 0.692}, {"variant": "A24C A27T", "fraction ligated": 0.668}, {"variant": "A24C A36C", "fraction ligated": 0.763}, {"variant": "A24C A36G", "fraction ligated": 0.0223}, {"variant": "A24C A36T", "fraction ligated": 0.767}, {"variant": "A24C A37C", "fraction ligated": 0.716}, {"variant": "A24C A37G", "fraction ligated": 0.626}, {"variant": "A24C A37T", "fraction ligated": 0.754}, {"variant": "A24C A39C", "fraction ligated": 0.131}, {"variant": "A24C A39G", "fraction ligated": 0.774}, {"variant": "A24C A39T", "fraction ligated": 0.197}, {"variant": "A24C A41C", "fraction ligated": 0.00606}, {"variant": "A24C A41G", "fraction ligated": 0.608}, {"variant": "A24C A41T", "fraction ligated": 0.614}, {"variant": "A24C A48C", "fraction ligated": 0.186}, {"variant": "A24C A48G", "fraction ligated": 0.614}, {"variant": "A24C A48T", "fraction ligated": 0.0426}, {"variant": "A24C A56C", "fraction ligated": 0.0226}, {"variant": "A24C A56G", "fraction ligated": 0.0302}, {"variant": "A24C A56T", "fraction ligated": 0.0488}, {"variant": "A24C A57C", "fraction ligated": 0.368}, {"variant": "A24C A57G", "fraction ligated": 0.633}, {"variant": "A24C A57T", "fraction ligated": 0.55}, {"variant": "A24C C26A", "fraction ligated": 0.417}, {"variant": "A24C C26G", "fraction ligated": 0.419}, {"variant": "A24C C26T", "fraction ligated": 0.0218}, {"variant": "A24C C28A", "fraction ligated": 0.727}, {"variant": "A24C C28G", "fraction ligated": 0.742}, {"variant": "A24C C28T", "fraction ligated": 0.786}, {"variant": "A24C C33A", "fraction ligated": 0.147}, {"variant": "A24C C33G", "fraction ligated": 0.4}, {"variant": "A24C C33T", "fraction ligated": 0.697}, {"variant": "A24C C40A", "fraction ligated": 0.165}, {"variant": "A24C C40G", "fraction ligated": 0.348}, {"variant": "A24C C40T", "fraction ligated": 0.707}, {"variant": "A24C C42A", "fraction ligated": 0.779}, {"variant": "A24C C42G", "fraction ligated": 0.775}, {"variant": "A24C C42T", "fraction ligated": 0.779}, {"variant": "A24C G31A", "fraction ligated": 0.0336}, {"variant": "A24C G31C", "fraction ligated": 0.038}]}]}
